Measurements reported in patent publication US20190185898A1 (UNIVERSITY OF MARYLAND BALTIMORE COUNTY, published 2019).

Biological target: T1, core-fucosylated complex type glycoform of rituximab (30)
T1 construct: Obtained from 28 by AlfC E274A catalysed core fucosylation; also called fucosylated rituximab (30); core fucosylated antibody (30)
Test: ELISA, glycoprotein coated, AAL-biotin in serial dilution
Protocol: The glycoprotein (20, 21, 28 or 30) (10 μg/ml) in a phosphate buffer (pH 7.5) was coated onto a 96-well plate (UltraCruz®) at 4° C. for overnight. After wash twice, 2% bovine serum albumin in PBS containing Tween® 20 (PBST buffer) was added to block the plate for 2 h. Subsequently, after washed twice again, a serial dilution of AAL-biotin ranging from 0.1 μM to 1000 μM in PBST buffer was added and the plate was incubated for 1 h. After washing, peroxidase streptavidin (2 μg/mL) (Jackson ImmunoResearch Inc.) was added and incubated for 1 h. Finally, 100 μL of substrate, 3, 3′, 5, 5′-tetramethylbenzidine was added for signal development. The reaction was stopped by the adding 100 μL of 20% sulfuric acid (v/v). The absorbance at 450 nm was measured using SpectraMax M5 microplate reader (Molecular Devices). For the binding of the N-glycans, the Fmoc-labeled N-glycans released from 20, 21, 28 and 30 (1 μg/ml) were coated on the plate and the ELISA analysis was performed in the same manner as that of the glycoproteins.

- EC50: 15 µM
- fold higher affinity than core-fucosylated RNase B (21): ~17 fold
B1: Aleuria aurantia lectin (AAL) (other, UniProt P18891 2-313, looked up)
chain: PTEFLYTSKIAAISWAATGGRQQRVYFQDLNGKIREAQRGGDNPWTGGSSQNVIGEAKLFSPLAAVTWKSAQGIQIRVYCVNKDNILSEFVYDGSKWITGQLGSVGVKVGSNSKLAALQWGGSESAPPNIRVYYQKSNGSGSSIHEYVWSGKWTAGASFGSTVPGTGIGATAIGPGRLRIYYQATDNKIREHCWDSNSWYVGGFSASASAGVSIAAISWGSTPNIRVYWQKGREELYEAAYGGSWNTPGQIKDASRPTPSLPDTFIAANSSGNIDISVFFQASGVSLQQWQWISGKGWSIGAVVPTGTPAGW
modifications: biotin label (AAL-biotin), site not stated
notes: Lectin that recognises the α1,6-fucosylated glycan; Added in serial dilution (0.1 µM to 1000 µM) to the coated glycoprotein; also called AAL-biotin
